Assay results taken from the DeepSol protein solubility set.

Assay: soluble on expression in E. coli; label from the status in PepcDB or PDB records

Question: With “MAIHVEHVGVLERAREVSRLEDIITEDNEDIEAEMPKMRDDPAGKEARFLQATDEMSAALTQFMKKKIYEEQLANFLDGEEYVLEDQPIEKTDKVMEALKAATTHDYEVYSFAKKLFPDESDLVVVLRAILRKKQISENVRLNAEALLRKVNQETTKKFINSGINSALKAKLFGQALSLNPKLLRASYRQFLMAEDDAVDTYVEWIGSYGYQNRMLVTKFIKETLFSDINALDASCSSLEFGMFLNKLSQLLSLQSAEALFLKTLMNNPIIKKFISAEDYWIFFLISLIKFPETAEELLNNALVTLPADANYKDKTLLLKAIYSGCTNLPFSLFINNEQLLEIRECCKQAIKVTFAAELFDTQNCNKKQNKKPWKKVMFNV” as the sequence, how does the “soluble on expression in E. coli” value read?
Answer: not soluble

Question: For “SPLEQRSQHCKPEEGLEARGEALGLVGAQAPATEEQEAASSSSTLVEVTLGEVPAAESPDPPQSPQGASSLPTTMNYPLWSQSYEDSSNQEEEGPSTFPDLESEFQAALSRKVAKLVHFLLLKYRAREPVTKAEMLGSVVGNWQYFFPVIFSKASDSLQLVFGIELMEVDPIGHVYIFATCLGLSYDGLLGDNQIMPKTGFLIIILAIIAKEGDCAPEEKIWEELSVLEVFEGREDSIFGDPKKLLTQYFVQENYLEYRQVPGSDPACYEFLWGPRALIETSYVKVLHHMVKISGGPRISYPLLHEWALREGEE”, which “soluble on expression in E. coli” value is on record?
Answer: soluble

Question: For “MSLNVDLHCHSTASDGALSPSVLVARAHEHGVQALALTDHDTLEGLPEARQACVDLGMRWVSGVELSCTWGGATIHVLGYDFPLDAPPLLAAIQALHHGRWLRAEEIDRRLAAKGMPGTLEGARAVQHELGDSGNAPARPHFAEYLVRAGHVKDRGEAFRKWLGAGKLGDVKQHWPTLDETVATLRQSNAWVSLAHPMHYDLTRSKRRRLIADYIQAGGQALEVVNGMMPAEQVGTMSILAREFGLLASAGSDFHGPGTWGEIGAYRPLPEDLPPLWRRFSHEEGHHHHHH”, which “soluble on expression in E. coli” value is on record?
Answer: soluble

Question: With “MSLALNLSKAVVGYLQVRPEEKFTARQIAEWVFATYPAECQEKRANSRGDYIKSDADLVQQLVAEISSQRPRMQMKHPALKTTEGRPRKYYYSEKSDSAEVAAAEGEGATAAADIGTSMLDEHALYPLLSQYLWEEFGVFSKRINEKRSSNKRGPNGNRWLYPDMVGMQDLGADWHREVRDCVKQYSDKRTKLWSFEVKLLINRSNIRECFFQAVSNSSWSNFGYLVAAEVSGQETLKELRMLFAAHGIGFIRLDVDNPADSQVLIPARERDAIDWDMANRLATENRDFLNYVKQVKQFYQTGEARFKDWDVPEEYSIQEGHHHHHH” as the sequence, how does the “soluble on expression in E. coli” value read?
Answer: soluble

Question: For “MGHHHHHHSHMRQRLLPSVTSLLLVALLFPGSSQARHVNHSATEALGELRERAPGQGTNGFQLLRHAVKRDLLPPRTPPYQGDVPPGIRNTICRMQQGICRLFFCHSGEKKRDICSDPWNRCCVSNTDEEGKEKPEMDGRSGI”, which “soluble on expression in E. coli” value is on record?
Answer: not soluble

Question: With “MIQLEKLTKHFGTKRVVHDASAQFDKGQVTAIIGPNGAGKSTLLSMASRLVNRDAGKVWIEQRELVEWNTKALAQKLAVLRQSNVLNMRFTVRELTAFGRFPYSQGKLTTQDEQIINQAIEYLDLETIQYQYLDELSGGQRQLAFIAMVMAQDTDYVFLDEPLNNLDIKHSLQIMSTLRRLAHELNKAVVVVIHDINFASCYADKIVALKKGEVVATGSVRDVIQSEVLSAIYDTPFNVIEMQGQRLCLYTLPT” as the sequence, how does the “soluble on expression in E. coli” value read?
Answer: not soluble

Question: For “MNGSRSTFLYLLAAAGLALTPAAQADRGNDVVARLNQLYNDTRQDCGGPSKPAFLCSGVLFRATWPSTDYMFYSISPKSQKSGGVSASYLRKDAKYRKLAYGLKSGFIFDTIFGNPKDHQDYAVLCSFPIDAATDDRAQQGCTDSRRTPNSVEKSCQDINVSTAEQWAANYRQNRGDHSRQCSFDVRDERNTAAGPAFYQSIRAMAQIADESFTTQNELRLAKWEENPPKSPSILAAFYTEDAGLEGARLNQIQWYQSVQAFLPIINMRLPQTRQQDAQFAYDGRKQAIYPTSEKNACERYVESATWVERDDPGFRKKIMTLEVVPTDCGRKIQDNQTNNFFNELVVDHYLDSEWKDNPDNRDSNIGSMRRQLVCHFNVARNKPEWNLEPSRPYTSNEDSIAKGCNNT”, which “soluble on expression in E. coli” value is on record?
Answer: not soluble

Question: Which “soluble on expression in E. coli” value does the source give for “MGSIISRTIPGQGHGNQYYPGVQWDVRDSAWRYVTILDLPFSLVFDTLLLPIDIHHGPYELEHHHHHH” here?
Answer: not soluble

Question: For “MPDHGPAFTVKIAETEAELHAAQRLRYDVFVRELGGSGALVDHQAGLERDRFDPFFDHMLCINNRSGQVVGVYRLLRDEQAQSAGQFYSEDEYDLGVLKRSGRRLLELGRSCVHPDYRGGMAMYHLWNGLADYVEQHGIEVLFGVASFHGTDVEALAQPLSMLYHNHLAPEDLRVRTQPAHYVDMNRITPEALDRRRAMLEVPSLIKAYLRLGGFVGDGAYIDHAFNTTDVCLILDTARMNERQRRIYGGG”, which “soluble on expression in E. coli” value is on record?
Answer: not soluble

Question: Which “soluble on expression in E. coli” value does the source give for “MACFSSLSTGVLDMYDLIIVGGGPSGASAGRVAGKAGISTLLIEKENFPRYKPCGGALSPYALSCLDFKLPEYLIEKDISRIRVHFRELCTEMQKDYSIALLVSRKAFDNFLLDKARETGIDIHSGEKVLDCEEGEECVEVRTSQNTYLAKFVLIAEGSEGVLKYSVRKRKDRRTEYDLALVSEIPERDKVIRKRFPNAIDMHFGIASGGYGWIFPHSEHYSVGIVGTAEHLKHPKAVMQDFLQANGFSGDFQVHSHIIPVGGIKRKTISSRILLSGDAAGFVDAFIGEGISYAIRSGQLAAENVAEIVLYNRKLSDLKEYETSCRKEFGNFLSSSLKLEKAMHRFPETSFRLALSRKEIIDKYLEEVVINRSHKDYVRWLLLNFSLSEPASKIKSIKDKNQLEHHHHHH” here?
Answer: not soluble

Question: With “MAHHHHHHMEVVVKSIGTAFTVAVIPVLKDNYSYVIHDKATNTLAAVDVSVDIDPVIDYVRRLGGVDRTTDLRTILSTHKHHDHSGGNISLQKKLNAMGAFRIIGGANEPIPGVTEKVREGDHFSIGELKVDVLDAPCHTSGHVLYKVYHPQKAENGIALFTGDTMFVGGIGAFFEGDAVLMCSALRKVYNLNGACESSACDATDVQKRDNHTYIFPGHEYTVNFLRFSRDALPASHPDVSFVEAQLRRYTESVAGNVPTVPSTLAEEKRQNLFLRTCDEAFVRVMNKGETAVKLMDFLYNTCP” as the sequence, how does the “soluble on expression in E. coli” value read?
Answer: soluble

Question: Which “soluble on expression in E. coli” value does the source give for “MGSDKIHHHHHHMTNKNYLLYVDNEKYVLRLPGVMTSNLISRHYEMNNSILMSQAEFNVETIYFNADNGIKITKFLEKGINFNHNNIHQYEYLFLISKELYKLHHSDIQFNNEFNVFETFQQYFDLLKDKNGFFCFNKNIPLIYEFFIKISKNNSFYNIKCPCHNDLVPENILLKNNKLFFIDWEYSGMNAPLFDVAAFFLESRIPKEKQKYFLAHYDHHLDFEKSRMEILFHQFTQDVLWFLWTLIKEENNETFENYASIRINRAYELMKDLVKNEVI” here?
Answer: not soluble

Question: With “CISMSKIAVVINPIAGGGRGKKVWKVLKPGLHALFEQTVYRISNRVNDLEAITDGLLAENPDSLLIIGGDGTLNHVLNGLIEKDKLKNPQTKIAFFNAGCGGDFTRQFPQQKMTEFLDRLSHNQFIKCDIGKITLAN” as the sequence, how does the “soluble on expression in E. coli” value read?
Answer: not soluble

Question: Which “soluble on expression in E. coli” value does the source give for “MTKKIVLAGGTGFIGQYLQQRFEENGDEVVIISRRAPHVSWDDSEAVREALEGADMLVNLAGKSVNCRYNEQNKKAILQSRIDTTNILGEAVLACERPPKLWLNSSTATIYRHAEDRAMTEANGELGSGFSENVAKAWEEEFFSFQLPNTRQAALRISIVLGGDGGALTPYRYLTKFGLGGKQGSGKQMVSWIHVEDVFRVIRFIEEQEALEGVINCTSPQPVSNKVLTTAIRRAMNVKVGLPATAWMLEIGTFLLRTESELILKSRWVLPERLLQAGFTFQYETIDDALSEILVQSKSASHLLEHHHHHH” here?
Answer: not soluble

Question: With “MTNVLILGAAGQIARLAEQQFLANTTDNLTLYLRNSSRVADQQSDRVTIIDGDTTDEAKLTQAMTGQDVVYANLAGQNIKQQAETVLKAMHTSGLKRLIWISTLGIYDEVPGKFGQWNNATLGSYLTRYYAAAEVLENSDLDYTIIRPAWLTNKDEIDYEITQRHDPFKGTEVSRKSIAALVVKLTQDPTSNIRTSLGVNKPNTDGDKPAWY” as the sequence, how does the “soluble on expression in E. coli” value read?
Answer: not soluble

Question: With “VTNVSWLVTGSMSALSIPGLIFSLRSSHPNLNFTPYLTQSASRIVTMTSMATLSGVTPRNSDWGSEPEATPSHIQIESESDAYLIAPATLDFLARFARYDCSTPFSLALQCTKKPILVAPS” as the sequence, how does the “soluble on expression in E. coli” value read?
Answer: not soluble

Question: With “MAFESSKSYYSIGEVSRISGIPAYLLRYWEDYFSELAPARDTRGNRRYTNRDIAMVLNIKDLVYEKGYKLNKASQMVKGGKVDHDGADHKTNEILKLQKQLLREQKEYEITGERRRMLLLEIKDEIEDILELLG” as the sequence, how does the “soluble on expression in E. coli” value read?
Answer: not soluble

Question: For “MMKQNPILITGGTGTVGSRIASRLIKLGYRVRIASRKKGALADAEYVYFNWKYASSFTPALEQVKQIYLVAPVGVFDPAPYVLPFLKEAKRLGAKRVVMQSASVVSENGPVFGALHQAVREFPEWTVLRPSYFMQNFINVQHRMSIQTEGRITTASGEGKLGFIDADDIAETAVRALIDDVPHQTHHILTGPEALSYAEAAEIIGAAAGRRVEHVSISRSELQHKMEAGGLPADYAHFMAKLDEAISHGAEHRVTDTVKRVTGKEPRSLSEFAAAHAAYWTSFWTELEHHHHHH”, which “soluble on expression in E. coli” value is on record?
Answer: not soluble

Question: For “MTFRNCVAVDLGASSGRVMLARYERECRSLTLREIHRFNNGLHSQNGYVTWDVDSLESAIRLGLNKVCAAGIAIDSIGIDTWGVDFVLLDQQGQRVGLPVAYRDSRTNGLMAQAQQQLGKRDIYQRSGIQFLPFNTLYQLRALTEQQPELIPHIAHALLMPDYFSYRLTGKMNWEYTNATTTQLVNINSDDWDESLLAWSGANKAWFGRPTHPGNVIGHWICPQGNEIPVVAVASHDTASAVIASPLNGSRAAYLSSGTWSLMGFESQTPFTNDTALAANITNEGGAEGRYRVLKNIMGLWLLQRVLQERQINDLPALIAATQALPACRFIINPNDDRFINPDEMCSEIQAACREMAQPIPESDAELARCIFDSLALLYADVLHELAQLRGEDFSQLHIVGGGCQNTLLNQLCADACGIRVIAGPVEASTLGNIGIQLMTLDELNNVDDFRQVVSTTANLTTFTPNPDSEIAHYVALIHSTRQTKELCA”, which “soluble on expression in E. coli” value is on record?
Answer: soluble

Question: Which “soluble on expression in E. coli” value does the source give for “AIAESTKSNDIPILRNVSDSFSDHYGKYLQRCGIFVPKDGDSSGPDAYVVFHNGQTRYVVAFSFTFYHKTEFSKRDIEKEAEQFFQEVISVLNDGSPSSVQLCFQFVVVCTRYDRSVVFSSEEQNIVEDASYLVTEHSAGSTLNESRRSCLQLVVVSQRNLERFLGRENFDILRKIGKASREEFRKDFSVWCKTVFESMSDEYVSPLEAKPFNVTLRVARNIRPRTNEENRMQMEGFQTAMQVEEGNTRGEQRVAASSSLSSSFDWNTFLREYCGLSEEDVAYCLPKVEDIDMDELPAVTKEILRDLGIDKPALRLKIRSSIRSYLANER” here?
Answer: soluble

Question: For “MSLQKLAVFDFDSTLVNAETIESLARAWGVFDEVKTITLKAMNGETDFHKSLILRVSKLKNMPLKLAKEVCESLPLFEGALELVSALKEKNYKVVCFSGGFDLATNHYRDLLHLDAAFSNTLIVENDALNGLVTGHMMFSHSKGEMLLVLQRLLNISKTNTLVVGDGANDLSMFKHAHIKIAFNAKEVLKQHATHCINEPDLALIKPLIEGHHHHHH”, which “soluble on expression in E. coli” value is on record?
Answer: soluble

Question: For “MSDPAGGKALRRDAAENRQRLLDAAATVFSARGLDVGVDEIARVAGVGIGTLYRRFPTKDALISELVRQVLEDFLTLAHEALSAPEGEGLEQVLYGSGAILASNRGCLSRMWNDDQTTVLRNEYRRILFELLAGAKQHGRIREDATEADLDLIFWSLRGVVATTRGVTDTGWRRILAVMIAGLRPGAERLDAAPLSAQDVAQIMENLWPR”, which “soluble on expression in E. coli” value is on record?
Answer: not soluble
